From patent US9359446B2, “Antibody to a carbonic anhydrase” (Hemholtz Zentrum Munchen—Deutches Forschungszentrum Fur …, priority 2010, dated 2016)

How the values were obtained:
CA-XII [1] = molecular target: T1, CA-XII (Homo sapiens, UniProt O43570); experiment: Flow cytometry binding to murine L929 cells transfected with human CA-XII; parameters: expressed in transfected cells; host or cells: murine L929 cells
Protocol: (§1) Murine L929 cells were transfected with an expression plasmid encoding human CA-XII. […] As a control, binding of EXO 6A10 to non-transfected L929-cells was tested (FIG. 10, grey area, L929). […] the binding of membrane localized overexpressed human CA-XII.

A549 lung cancer cells = experiment: Inhibition of metabolic activity and growth in 3-dimensional A549 tumour spheroids (MTT-assay, pictures); type: cell-based, human
Protocol: Metabolic acitivity of the spheroid was measured two days later by means of a MTT-assay and reading of the extinction at 595 nm (Cory et al. 1991). All data are represented as mean±standard error. Comparisons between non-treated and treated spheroids were performed using t-tests.
A549 lung cancer cells were plated onto a cushion consisting of 1% (v/v) agarose in PBS on a 96-well cell culture plate. […] Instead cells spontaneousely form 3-dimensional structures termed tumour spheroids.
FIG. 7, Upper: Some of the spheroids were cultivated in the presence of EXO 6A10 (final concentration 10 μg/ml) whereas others were cultivated with acetazolamide (AAZ, final concentration 100 μM). Control spheroids were cultivated without any additional treatment (Unbeh.). The metabolic acitivity of the spheroid was measured two days later by means of a MTT-assay as described and reading of the extinction at 595 nm (Cory et al. 1991). For each group, 10 spheroids were included, the mean value, the standard deviation were calculated. All data are represented as mean±standard error. Comparisons between non-treated and treated spheroids were performed using t-tests, calculated using Prism4 (GraphPad Software, La Jolla).
FIG. 7, Lower: A549 spheroids were cultivated for two days with EXO 6A10 or left untreated.

[2] = tested on: non-transfected L929-cells; experiment: Flow cytometry binding to non-transfected L929 cells (control); parameters: species or system murine
Protocol: as §1

CA-XII [3] = molecular target: T1, CA-XII; experiment: CA-XII inhibition by EXO 6A10 and azetazolamide; type: biochemical; conditions: compared to sulfonamid azedazolamide
CA-II = CA-II (Homo sapiens, UniProt P00918); experiment: EXO 6A10 inhibition of CA II; type: biochemical
[4] = tested on: peripheral blood mononuclear cells (PBMC), melanoma cell lines; experiment: Flow cytometry binding to peripheral blood mononuclear cells and melanoma cell lines; parameters: species or system human; conditions: hybridoma supernatant diluted 1:5
Protocol: FIG. 4A. Permanent human cancer cell lines were incubated with EXO 6A10 (hybridoma supernatant diluted 1:5 in 2% (v/v) FCS (i.e., fetal calf serum) in PBS) for 15 min on ice, washed three times in PBS/2% (v/v) FCS and then stained with a specific secondary antibody (goat-anti-rat IgG/Cy5) for another 15 min on ice. Binding of 6A10 was then measured by flow cytometry in a Becton Dickinson FACS Calibur device and FlowJo software (Treestar Inc.). An antibody of the identical isotype with an irrelevant specificity (glutathione-S-transferase) was used as control. (grey are=isotype control; black line=EXO 6A10). No binding to peripheral blood mononuclear cells (PBMC) and to two melanoma cell lines (not shown) was detectable. […] Exosomes were isolated from malignant ascites by differential centrifugation (500×g; 10.000×g; 70.000×g) and resuspended in PBS. The protein concentration was measured in a standard Bradford assay. 2 μg protein were pipetted onto a nitrocellulose membrane. Membranes were incubated with the different primary antibodies. After washing, membranes were incubated with a specific secondary antibodiy (anti-rat IgG/peroxidase). Ganglioside GM1 was detected with cholera toxine subunit B/peroxidase. Membranes were developed with the ECL system.

T1 sequence (O43570 25-354): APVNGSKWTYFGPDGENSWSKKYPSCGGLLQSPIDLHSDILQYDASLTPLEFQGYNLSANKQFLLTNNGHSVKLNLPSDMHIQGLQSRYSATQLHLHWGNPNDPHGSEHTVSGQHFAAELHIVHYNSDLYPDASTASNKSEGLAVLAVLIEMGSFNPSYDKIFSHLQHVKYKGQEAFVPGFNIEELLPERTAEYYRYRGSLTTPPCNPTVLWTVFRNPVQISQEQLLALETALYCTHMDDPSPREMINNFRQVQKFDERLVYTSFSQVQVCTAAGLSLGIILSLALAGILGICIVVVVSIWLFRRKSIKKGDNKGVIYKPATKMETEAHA

B1: EXO 6A10: rat monoclonal antibody raised to human CA-XII; CDRs SEQ ID NOs 1 to 6, VH SEQ ID NO. 7, VL SEQ ID NO. 8 (protein)
light: MARVFQQDDIVMTQTPATLSVTPGESVSLSCRASQGISTSIHWYQQKSNESPRLLIKFASQSISGIPSRFSGSGSGTDFTLSINRVESEDFSVYFCQQTYSLPYTFGAGTKLELKRADGCTNCIHLSRRSPTIFSAAMENRCSSFILSRFSGCILKLILRTMLTTSSGTVVGG
VH: EVKLEESGPGLVQPSETLSLTCTVSGFSLTTYSVSWVRQPSGKGPEWMGRMWYDGDTVYNSALKSRLSISRDTSKNQVFLKMNSLETDETGTYYCTRDFGYFDGSSPFDYWGQGVMVTVSSAETTAPSVYPLAPGTALKSNSMVTLGCLVKILLKNSSHPEDLAAALPIVSRITPDGYGVQAQVLKQLILFTMRKKQ
binding to L929 cells transfected with human CA-XII (CA-XII [1]): binds to transfected | metabolic activity of spheroids (MTT-assay, extinction at 595 nm) (A549 lung cancer cells; A549 spheroids, 10 μg/ml, two days): inhibition of metabolic activity | size and density of A549 spheroids (A549 lung cancer cells; cultivated for two days, versus untreated spheroids): much smaller and much more dense | growth of tumour cell line A549 (A549 lung cancer cells; hypotoxic culture conditions): inhibits the growth | binding to non-transfected L929 cells [2]: not to non-transfected cells | inhibition of CA-XII enzyme activity relative to azedazolamide (CA-XII [3]): 40 times | inhibition of CA-II (CA-II): does not significantly inhibit | binding to PBMC and two melanoma cell lines [4]: No binding
